From US20040214329 come the findings set out here.

The data set deals with phiC31 integrase (Streptomyces phage phiC31?). The experiment in a line: cell_activity. The following applies: E. coli, 1% L-arabinose, 32 C, 60-120 min, resuspended 4:1 in fresh LB.

On to “phiC31 attB/attP sites flanking expression cassette in pBAD.phiC31.RHB”, for which the activity (% recombination) was over 97.
